From patent US10400230B2, “Protease variants and polynucleotides encoding same” (NOVOZYMES A/S, priority 2014, dated 2019)
Substitutions are numbered along the chain they refer to. In names and notes the source's numbering stands.

B1: K146A, S173P, S175P, F180Y: TY145 protease (SEQ ID NO 3) variant with these substitutions (protein, listed as Bacillus sp.)
chain: AVPSTQTPWGIKSIYNDQSITKTTGGSGIKVAVLDTGVYTSHLDLAGSAEQCKDFTQSNPLVDGSCTDRQGHGTHVAGTVLAHGGSNGQGVYGVAPQAKLWAYKVLGDNGSGYSDDIAAAIRHVADEASRTGSKVVINMSLGSSAADSLIASAVDYAYGKGVLIVAAAGNSGPGPNTIGYPGGLVNAVAVAALENVQQNGTYRVADFSSRGNPATAGDYIIQERDIEVSAPGASVESTWYTGGYNTISGTSMATPHVAGLAAKIWSANTSLSHSQLRTELQNRAKVYDIKGGIGAGTGDDYASGFGYPRVK
B2: S114Q, S173P, S175P, F180Y: TY145 protease (SEQ ID NO 3) variant with these substitutions (protein, listed as Bacillus sp.)
chain: B1 chain with S114Q, A146K
B3: I150A, S173P, S175P, F180Y: TY145 protease (SEQ ID NO 3) variant with these substitutions (protein, listed as Bacillus sp.)
chain: B1 chain with A146K, I150A
B4: I150N, S173P, S175P, F180Y: TY145 protease (SEQ ID NO 3) variant with these substitutions (protein, listed as Bacillus sp.)
chain: B1 chain with A146K, I150N
B5: K146T, S173P, S175P, F180Y: TY145 protease (SEQ ID NO 3) variant with these substitutions (protein, listed as Bacillus sp.)
chain: B1 chain with A146T

Test: Determination of binding constants of inhibitor (NNIC) in Model B detergent, Suc-AAPF-pNA read-out
Type: biochemical
Settings: Ki of variant with the mutation relative to variant without the mutation, <1.0 beneficial

Row | Molecule | Inhibitor-binding relative Kimutation, inhibitor binding in Model B
1 | B1 | 0.34
2 | B2 | 0.63
3 | B3 | 0.50
4 | B4 | 0.35
5 | B5 | 0.08

Test: Determination of binding constants of inhibitor in Tris buffer at pH 8
Type: biochemical
Settings: Ki of variant with the mutation relative to variant without the mutation
Experimental: Purified protease variants are pre-diluted to approximately 0.2 mg/ml in dilution buffer. 40 μl diluted protease is then mixed with 40 μl inhibitor solution (Z-Gly-Ala-NHCH(CH2C6H4pOH)C(OH)(SO3Na)—H, wherein Z is benzyloxycarbonyl) or 40 μl 4-FPBA solution in the well of a 96 well microtiter plate (Nunc F 96-MTP). […] After 10 min mixing of protease and inhibitor at room temperature, 30 μl of the mixture is transferred to a microtiter plate (Nunc U96 PP 0.5 ml) with 270 μl Model B detergent in the wells resulting in inhibitor concentrations of 0-30 μM and 4-FPBA concentrations of 0-6000 μM. Protease, inhibitor and detergent is mixed for 1 hour using magnetic bars for 1 hour at room temperature to reach equilibrium. Then 20 μl is transferred to a microtiter plate (Nunc F 96-MTP). 100 μl substrate solution is added and after 5 sec mixing absorbance at 405 nm is measured every 20 sec for 5 min on a SpectraMax Plus reader. Slope from linear regression of initial increase in absorbance at 405 nm is used for calculation of apparent binding constants.
It is assumed that protease and inhibitor react according to the equation: E+I ? EI
Where E is the protease, I is the inhibitor and EI is the protease-inhibitor complex. […] The concentration of enzyme-inhibitor in the detergent solution is then given by:
where Etot is the total protease concentration ([Etot]=[E]+[EI]), Itot is the total inhibitor concentration ([Itot]=[I]+[EI]), and Ki is the equilibrium binding constant for the reaction. The measured slopes V are given by:
where V0 is the slope without inhibitor added. To calculate apparent binding constant Ki least square fitting of measured slopes at various inhibitor concentrations to this equation is performed with Ki and V0 as variables.
Having the Ki for each variant, it is possible to calculate the effect of a single mutation, if data are available for at least two variants that differ only by that mutation. In this case, the relative Ki for the mutation is calculated:
[formula] A lower Ki is desirable, as a satisfactory inhibition can be obtained at a lower inhibitor concentration, so beneficial mutations have a relative Ki<1.0 The following table show such relative Kimutation. Each row show: • a mutation (column 1: “Mutation”) • a protease variant (relative to SEQ ID NO: 2) that comprise the mutation from column 1 (column 2: “Variant with the mutation”) • another protease variant (relative to SEQ ID NO: 2), that differs from the one in column 2 only by not having the mutation in column 1 (column 3: “Variant without the mutation”) • Relative Kimutation for the mutation in column 1, in the context of the variant in column 3, measured in Model B detergent (column 4: “inhibitor binding in Model B”) • Relative Kimutation for the mutation in column 1, in the context of the variant in column 3, measured in Tris buffer at pH 8 (column 5: “inhibitor binding in Tris buffer pH 8”)

Row | Molecule | Inhibitor-binding relative Kimutation, inhibitor binding in Tris buffer pH 8
6 | B1 | 0.29
7 | B2 | 0.34
8 | B3 | 0.40
9 | B4 | 0.21
10 | B5 | 0.06
